Biological target: human C3b (human)
Assay: SPR

Kd: > 35 µM
Substance: (R78G)FH1–4^V62 (from UniProt P08603 19-263) (domain or fragment)

Source: publication PMC3064162
